These results are taken from patent US12492252.

The target in this experiment is human GPC3 on cells (HepG2 cells expressing full length human GPC3; GPC3-transfected HEK293T cells) (human) (UniProt P51654). As to the kind of experiment: cell-based or functional assay.

In the case of GC33 CAR (GC33 Benchmark), the IFN-gamma cytokine release (pg/mL), E:T 1:1 came out at 8180 pg/mL; the IFN-gamma cytokine release (pg/mL), E:T 1:3 came to 2760 pg/mL; the IFN-gamma cytokine release (pg/mL), E:T 3:1 was 15000 pg/mL; the Specific lysis (%) of HepG2 cells, E:T 1:1 amounted to 9.78%. This substance came in with a Specific lysis (%) of HepG2 cells, E:T 1:3 of 4.57% and a Specific lysis (%) of HepG2 cells, E:T 3:1 of 17.2%.
